The record followed here is patent publication US20070231258A1, “Peptide conjugates” (KARYON CTT LTD., priority 2006, published 2007).

The nature of series [1]: Plasma stability of the peptide conjugates in human blood plasma/PBS (HPLC).
Method: (§1) The peptide conjugates (10-20 μg) was added to a human blood plasma/PBS mixture (1:1) in a total volume of 500 μl and incubated at 37° C. After incubation 100 μl per time point (0 and 240 min) was transferred to YM-10 (Microcon, cut-off 10000 MW; manufacturer Millipore), centrifuged (10000 RPM) 15 min at 4° C. 50 μl of the spin-through material was analyzed by HPLC.
(§2) HPLC: Waters 626 pump, 600S controller, Waters 996 photo diode array detector. Column: C18, 300 Å, 5 μm, 2.1×250 mm. Eluents for the non-conjugated functional peptides: A 0.1% TFA, B 0.075% TFA/100% ACN. Gradient: 0-100% B in 60 min. Flow: 180 μl/min. Loop: 50 μl.
(§3) Eluents for the functional peptide conjugates: Eluent A: 0.05 M ammonium acetate; B: 50% 0.05 M ammonium acetate/50% ACN. Gradient: 0-100% B in 60 min. Flow: 180 μl/min. Loop: 50 μl. One-minute fractions were collected and analyzed with MALDI-TOF.
(§4) Peptide mass: Bruker Ultraflex MALDI-TOF, N2-laser 337 nm, matrix saturated solution of α-cyano-4-hydroxycinnamic acid, reflector mode.
Series [2] has as its system C8161 tumors. Description: Targeting peptide biodistribution (Eu content of tissues) in C8161 tumor-bearing mice. It counts as in vivo, athymic nude mice. The conditions noted are these: 4 nmol i.v. tail vein, 20 min circulation; for accumulation of europium in tumor compared to normal tissue: kidney high due to excretion; for ratio of tumor Eu-content to muscle Eu-content: perfused. On the procedure:
It is shown that the tested conjugates according to the present invention selectively target to primary tumors in vivo but not to normal tissues or organs.
For production of experimental tumors 1×10^6 cells of C8161 line (described in Example 9) were injected subcutaneously into the flank of athymic nude mice strain (Harlan Laboratories). Tumors were harvested when they had reached a weight of about 0.1 g. Tumor-bearing mice were anesthetized by 0.02 ml/g body weight of Avertin [10 g 2,2,2-tribromoethanol (Fluka) in 10 ml 2-methyl-2-butanol (Sigma Aldrich)] intraperitoneally (i.p.).
To determine the biodistribution pattern of the conjugates, 4 nmol of MJ015 or MJ053 was injected into the tail vein of athymic nude mice in a volume of 100 μl in physiological saline solution (Baxter). The conjugate was allowed to circulate for 20 min. Mice were then perfused through the heart with 60 ml of physiological saline. Organs and tissues, including tumors were collected and weighed.
For determination of the Eu content of the tumors and control organs, 0.1-0.2 g of tissue was transferred into lysis buffer (20 mM Tris-HCl, 150 mM NaCl, 1% Nonident P40, pH 7.5) and homogenized. Eu-content was analyzed from tissue lysates prepared into the DELFIA Inducer solution (Perkin Elmer Wallac Ltd., Turku, Finland) and transferred to DELFIA Micro titration strip plates (Perkin Elmer Wallac Ltd, Turku, Finland). Time-resolved fluorescence was measured after incubation with a Wallac 1420 VICTOR3™ V plate reader using a D615 nm filter.

Series [3] is described as follows: Plasma protein binding and plasma stability assay in vitro (ultrafiltration, LC/MS/MS). It counts as in vitro ADME, mouse. On the procedure:
The plasma protein binding and plasma stability of the targeting agents MJ143 (lactam-bridged; described in Example 8) and MJ142 (cystine-bridged; described below) comprising functional peptide LRSGRG was compared in mouse plasma in vitro.
The study compounds were spiked to mouse plasma to give 10 μM concentration. The samples of 1.5 ml were incubated at 37° C. and 200 μl aliquots were taken after 0 min, 30 min, 60 min, 2 h and 4 h. Incubations were made in duplicate. The aliquot samples were ultrafiltrated for 30 min (Millipore YM-10 filters, 10 kDa cut-off, 12 000 rpm) and the supernatants were analysed using LC/MS/MS. The sample concentrations were quantified against calibration curves created using standard samples spiked to ultrafiltrated mouse plasma to concentrations 0.1, 0.5, 1, 5 and 10 μM.
A Finnigan Surveyor chromatographic system (Thermo-Finnigan, San Jose, Calif., USA) with autosampler, vacuum degasser and column oven was used in the analysis. The analytical column was a Waters SymmetryShield RP18, 2.1×50 mm, 3.5 μm together with Phenomenex Luna C18 precolumn, 4.0×2.0 mm, 3.0 μm (Phenomenex, Torrance, Calif., USA). The eluents were (A) 0.02% acetic acid in water (pH 3.6) and (B) methanol, with flow rate of 300 μl/min. The elution gradient was from 5% B to 90% B in five minutes, followed by column equilibration. The column oven temperature was 30° C. LC/MS/MS data was acquired with a Finnigan TSQ Discovery MAX triple quadrupole mass spectrometer equipped with an Ion MAX electrospray ionization source. Before LC/MS/MS runs, the instrument was tuned with a 5 μg/ml solution of study compounds to obtain the maximum sensitivity with multiple reaction mode. The collision gas was argon at 1.5 mTorr.

The nature of series [4]: in vitro. The following applies: human, plasma.
Method: as §1, §2, §3, §4

*1 amine or outer side, *2 acyl side, *3 side chain or, on linkers, in order; H or OH if unused. Where a SMILES comes first, the peptide text is derived from it. Bridges are numbered along the chain shown (N, C = ends). Primed or numbered codes have the meaning given here. [ ]: non-standard residue; d: D form. The star is where a group is joined. X1 = O=C(O)CN(CCN(CC(=O)O)CC(Cc1ccc(NC(=S)NCCOCCOCCN*)cc1)N(CC(=O)O)CC(=O)O)CC(=O)O; DTPA′ = diethylenetriaminepentaacetic acid chelator; NHCH2CH2SCH2CO = O=C(CSCCN[*:1])[*:2]; NH(CH2CH2O)2CH2CH2NH2 = NCCOCCOCCN*; AEEEA = NCCOCCOCCOCC(=O)O; PEG3 = NCCOCCOCCOCCC(=O)O; AABz = not defined here

For “a*LRSGRGE*-Teg-AEM-AABz-DTPA-Gd (LRSGRGE-{AEEEA-NHCH2CH2SCH2CO-AABz-DTPA′}; lactam N-7; not fully specified (N-terminus); reading uncertain; also: DTPA chelate of Gd) [MJ059]”, the “Observed compound peak heights prior to incubation” value in series [1] (0 h, human blood plasma/PBS 1:1, 37° C.) worked out at 100%. For the same compound, in series [1] (4 h, human blood plasma/PBS 1:1, 37° C.), the “Observed compound peak heights after four hours” value is 100%. Besides, in series [1] (4 h incubation in human plasma), the “degradation during incubation in plasma” value is “no degradation”.

As for “a*LRSGRGE*-Teg-AEM-AABz-DTPA-Eu (LRSGRGE-{AEEEA-NHCH2CH2SCH2CO-AABz-DTPA′}; lactam N-7; not fully specified (N-terminus); reading uncertain; also: DTPA chelate of Eu) [MJ015]”, in series [2], the “accumulation of europium in tumor compared to normal tissue” value was “accumulated strongly and selectively in C8161 tumors”; the “ratio of tumor Eu-content to muscle Eu-content” value was found to be 7.1.

For the compound “a*LRSGRGE*-Tegc-AEM-AABz-DTPA-In (LRSGRGE-{PEG3-NHCH2CH2SCH2CO-AABz-DTPA′}; lactam N-7; not fully specified (N-terminus); reading uncertain; also: In chelated by DTPA) [MJ143]”, the “Peptide-DTPA[In] relative remaining peak areas/unbound fraction (%)” value in series [3] (0 h, mouse plasma, 10 μM, 37° C., ultrafiltrate) turned out to be 71%; in series [3] (30 min, mouse plasma, 10 μM, 37° C., ultrafiltrate) it was 71%; in series [3] (1 h, mouse plasma, 10 μM, 37° C., ultrafiltrate), 70%; in series [3] (2 h, mouse plasma, 10 μM, 37° C., ultrafiltrate) it was 66%; in series [3] (4 h, mouse plasma, 10 μM, 37° C., ultrafiltrate), 61%. Further, the “plasma protein binding, lactam-bridged vs cystine-bridged version” value in series [3] (mouse plasma in vitro) is given as “considerably lower plasma protein binding”. Moreover, in series [3] (mouse plasma in vitro), the “plasma stability, lactam-bridged vs cystine-bridged version” value was “greatly more stable”.

Regarding a*IREE*-Tegc-AEM-AABz-DTPA-Eu [MJ053], in series [2], the “accumulation of europium in tumor compared to normal tissue” value was “accumulated strongly and selectively in C8161 tumors”; the “ratio of tumor Eu-content to muscle Eu-content” value came out at 3.9.

Broadly, the amount remaining is the share of the starting amount still present when the sample was taken. Higher therefore signals less turnover. Turning to `CC(C)C[C@@H]1NC(=O)[C@@H](C)NC(=O)CC[C@@H](C(=O)NCCOCCOCCN)NC(=O)CNC(=O)[C@H](CCCNC(=N)N)NC(=O)CNC(=O)[C@H](CO)NC(=O)[C@H](CCCNC(=N)N)NC1=O` [KK51, D-Ala*-Leu-Arg-SerGly-Arg-Gly-Glu*-NH(CH2CH2O)2CH2CH2NH2] ([dA]LRSGRGE-{NH(CH2CH2O)2CH2CH2NH2}; lactam N-8), the amount remaining at 4 h in series [4] amounted to 92%.

Turning to `CC(C)C[C@@H]1NC(=O)[C@@H](NC(=O)CN)CSSC[C@@H](C(=O)NCC(=O)NCCOCCOCCN)NC(=O)CNC(=O)[C@H](CCCNC(=N)N)NC(=O)CNC(=O)[C@H](CO)NC(=O)[C@H](CCCNC(=N)N)NC1=O` [KK12, Gly-Cys*-Leu-Arg-SerGly-Arg-Gly-Cys*-Gly-NH(CH2CH2O)2CH2CH2NH2, reference compound] (H-GCLRSGRGCG-{NH(CH2CH2O)2CH2CH2NH2}; disulfide 2-9; N-terminus assumed), in series [4], the amount remaining at 4 h came out at 25%.

Regarding `CC(=O)N[C@H]1CSSC[C@@H](C(=O)NCC(=O)N[C@@H](C)C(=O)NCCOCCOCCNC(=S)Nc2ccc(CC(CN(CCN(CC(=O)O)CC(=O)O)CC(=O)O)N(CC(=O)O)CC(=O)O)cc2)NC(=O)CNC(=O)[C@H](CCCNC(=N)N)NC(=O)CNC(=O)[C@H](CO)NC(=O)[C@H](CCCNC(=N)N)NC(=O)[C@H](CC(C)C)NC1=O` (stereo partly shown) [MJ142, reference compound] (Ac-CLRSGRGCGA-X1; disulfide 1-8), the fraction unbound at 0 h, 10 μM in series [3] (0 h, mouse plasma, 10 μM, 37° C., ultrafiltrate, read-out: Peptide-DTPA[In] relative remaining peak areas/unbound fraction (%)) was found to be 0.48. The fraction unbound at 30 min, 10 μM in series [3] (30 min, mouse plasma, 10 μM, 37° C., ultrafiltrate, read-out: Peptide-DTPA[In] relative remaining peak areas/unbound fraction (%)) amounted to 0.44. In addition, in series [3] (1 h, mouse plasma, 10 μM, 37° C., ultrafiltrate, read-out: Peptide-DTPA[In] relative remaining peak areas/unbound fraction (%)), the fraction unbound at 1 h, 10 μM turned out to be 0.35. Further, the fraction unbound at 2 h, 10 μM in series [3] (2 h, mouse plasma, 10 μM, 37° C., ultrafiltrate, read-out: Peptide-DTPA[In] relative remaining peak areas/unbound fraction (%)) stood at 0.19. For the same compound, the fraction unbound at 4 h, 10 μM in series [3] (4 h, mouse plasma, 10 μM, 37° C., ultrafiltrate, read-out: Peptide-DTPA[In] relative remaining peak areas/unbound fraction (%)) stood at 0.06. The fraction unbound at 0 min, 10 μM in series [3] (mouse plasma, 0 min incubation, during the 30 min ultrafiltration period, read-out: disappearance due to protein binding (converted)) is around 0.48.
